Columns and labels:
human IL-18 [1] = biological target: T1, human IL-18 (human, UniProt Q14116 37-193); test: SPR (Biacore)
T1 construct: also called hIL-18

human IL-18 [2] = biological target: T1, human IL-18; test: cell-based or functional assay
human IL-12 = biological target: T2, human IL-12 (human, UniProt P29459 23-219; P29460 23-328); test: cell-based or functional assay
T2 sequence (looked up) 1: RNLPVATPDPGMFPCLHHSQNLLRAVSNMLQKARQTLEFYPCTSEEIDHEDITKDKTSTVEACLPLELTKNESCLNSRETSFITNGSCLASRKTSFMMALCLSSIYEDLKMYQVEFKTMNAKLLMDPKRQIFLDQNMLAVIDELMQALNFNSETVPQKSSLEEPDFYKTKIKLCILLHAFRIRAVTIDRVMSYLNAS
T2 sequence (looked up) 2: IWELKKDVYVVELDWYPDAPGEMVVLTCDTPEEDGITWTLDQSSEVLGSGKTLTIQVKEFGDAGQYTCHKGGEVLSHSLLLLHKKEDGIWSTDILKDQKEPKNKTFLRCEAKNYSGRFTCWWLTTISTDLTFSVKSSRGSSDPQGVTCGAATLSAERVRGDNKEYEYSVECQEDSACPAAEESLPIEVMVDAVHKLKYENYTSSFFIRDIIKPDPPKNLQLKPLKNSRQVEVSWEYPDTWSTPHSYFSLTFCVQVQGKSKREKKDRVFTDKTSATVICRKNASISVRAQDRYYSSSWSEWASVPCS

B1: DVD1812SL (anti-IL-18/IL-12 DVD-Ig, 18-12-C, short linker) (bispecific antibody, human IgG1, kappa)
heavy: not shown
light: EIVMTQSPATLSVSPGERATLSCRASESISSNLAWYQQKPGQAPRLFIYTASTRATDIPARFSGSGSGTEFTLTISSLQSEDFAVYYCQQYNNWPSITFGQGTRLEIKRTVAAPQSVLTQPPSVSGAPGQRVTISCSGSRSNIGSNTVKWYQQLPGTAPKLLIYYNDQRPSGVPDRFSGSKSGTSASLAITGLQAEDEADYYCQSYDRYTHPALLFGTGTKVTVLGTVAAPSVFIFPPSDEQLKSGTASVVCLLNNFYPREAKVQWKVDNALQSGNSQESVTEQDSKDSTYSLSSTLTLSKADYEKHKVYACEVTHQGLSSPVTKSFNRGEC
notes: also called DVD1812HC-SL / DVD1812LC-SL
Kd (human IL-18 [1]): 110 pM
Potency (IC50, M), KG-1 bioassay (human IL-18 [2]): 4e-11 M

B2: ABT-874 (fully human anti-human IL-12p40 mAb) (antibody, V domains shown)
VH: QVQLVESGGGVVQPGRSLRLSCAASGFTFSSYGMHWVRQAPGKGLEWVAFIRYDGSNKYYADSVKGRFTISRDNSKNTLYLQMNSLRAEDTAVYYCKTHGSHDNWGQGTMVTVSS
VL: QSVLTQPPSVSGAPGQRVTISCSGSRSNIGSNTVKWYQQLPGTAPKLLIYYNDQRPSGVPDRFSGSKSGTSASLAITGLQAEDEADYYCQSYDRYTHPALLFGTGTKVTVLG
IC50 (M), IL-12-induced IFN-γ production by PHA blast cells (human IL-12): 5e-12 M

B3: DVD1812LL (anti-IL-18/IL-12 DVD-Ig, 18-12-C, long linker) (bispecific antibody, human IgG1, kappa)
heavy: not shown
light: EIVMTQSPATLSVSPGERATLSCRASESISSNLAWYQQKPGQAPRLFIYTASTRATDIPARFSGSGSGTEFTLTISSLQSEDFAVYYCQQYNNWPSITFGQGTRLEIKRTVAAPSVFIFPPQSVLTQPPSVSGAPGQRVTISCSGSRSNIGSNTVKWYQQLPGTAPKLLIYYNDQRPSGVPDRFSGSKSGTSASLAITGLQAEDEADYYCQSYDRYTHPALLFGTGTKVTVLGTVAAPSVFIFPPSDEQLKSGTASVVCLLNNFYPREAKVQWKVDNALQSGNSQESVTEQDSKDSTYSLSSTLTLSKADYEKHKVYACEVTHQGLSSPVTKSFNRGEC
Potency (IC50, M), KG-1 bioassay (human IL-18 [2]): 7.8e-11 M

B4: ABT-325 (fully human anti-human IL-18 mAb) (antibody, V domains shown)
VH: EVQLVQSGTEVKKPGESLKISCKGSGYTVTSYWIGWVRQMPGKGLEWMGFIYPGDSETRYSPTFQGQVTISADKSFNTAFLQWSSLKASDTAMYYCARVGSGWYPYTFDIWGQGTMVTVSS
VL: not shown
IC50 (M), KG-1 bioassay (IL-18-induced IFN-γ production) (human IL-18 [2]): 3e-10 M

— patent EP2495257A2 (Abbott Laboratories, dated 2012)
